# Laboratory results reported in PMC11784021, “Structural basis for nuclear import of adeno-associated virus serotype 6 capsid protein” (Journal of Virology, 2024).
# Values joined by “and” are separate entries in the source; they are usually repeats but may differ in a detail not shown here. Equal values may be shown once. Primed or numbered codes have the meaning given here. Ends that are not written are not given here. FITC′ = fluorescein isothiocyanate; Ahx = NCCCCCC(=O)O
# T1: human importin α3 lacking the IBB domain (hIMPα3ΔIBB) (human, UniProt O00629 59-521)
# T1 construct: pET30a, His tag with TEV site; also called ΔIBB-IMPα3
# T1 sequence (looked up): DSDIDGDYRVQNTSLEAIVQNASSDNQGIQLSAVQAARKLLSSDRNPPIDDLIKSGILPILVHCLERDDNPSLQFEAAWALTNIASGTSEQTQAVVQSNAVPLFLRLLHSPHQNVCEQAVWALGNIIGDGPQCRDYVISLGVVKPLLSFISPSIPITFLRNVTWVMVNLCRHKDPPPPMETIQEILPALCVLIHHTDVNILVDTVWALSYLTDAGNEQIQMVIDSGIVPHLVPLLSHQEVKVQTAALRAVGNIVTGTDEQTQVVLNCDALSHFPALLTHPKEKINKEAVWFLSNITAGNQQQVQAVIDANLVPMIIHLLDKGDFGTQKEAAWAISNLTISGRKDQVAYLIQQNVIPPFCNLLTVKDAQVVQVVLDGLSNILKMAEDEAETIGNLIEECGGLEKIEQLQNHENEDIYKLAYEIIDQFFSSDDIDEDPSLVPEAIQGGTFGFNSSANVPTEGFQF
# Assays:
# Details in all cases: both partners purified
# [1] = target: T2, mouse importin α2 lacking residues 1-70 (IMPα2ΔIBB) (mouse, UniProt P52293 71-529); assay: crystal structure; co-purified complex of AAV6 VP1-BR and IMPα2; hanging drop, 0.7 M sodium citrate, 0.01 M dithiothreitol, 0.1 M HEPES pH 7.5, 22°C; 2.3 Å
# [2] = target: T2, mouse importin α2 lacking residues 1-70 …; assay: fluorescence polarisation; FITC-tagged AAV6 VP1-BR peptide at 2 nM; importin isoforms serially diluted from an upper concentration of 4.5 µM; three independent experiments
# [3] = target: T3, human importin α5 lacking the IBB domain (hIMP5ΔIBB) (human, UniProt P52294 58-538); assay: as above
# T3 construct: pET30a, His tag with TEV site; also called IMPα5; ΔIBB-IMPα5
# [4] = target: T1, human importin α3 lacking the IBB …; assay: as above
# [5] = target: T4, human importin α7 lacking the IBB domain (hIMPα7ΔIBB) (human, UniProt O60684 61-536); assay: as above
# T4 construct: pET30a, His tag with TEV site; also called ΔIBB-IMPα7
# T4 sequence (O60684 61-536, stated change not applied): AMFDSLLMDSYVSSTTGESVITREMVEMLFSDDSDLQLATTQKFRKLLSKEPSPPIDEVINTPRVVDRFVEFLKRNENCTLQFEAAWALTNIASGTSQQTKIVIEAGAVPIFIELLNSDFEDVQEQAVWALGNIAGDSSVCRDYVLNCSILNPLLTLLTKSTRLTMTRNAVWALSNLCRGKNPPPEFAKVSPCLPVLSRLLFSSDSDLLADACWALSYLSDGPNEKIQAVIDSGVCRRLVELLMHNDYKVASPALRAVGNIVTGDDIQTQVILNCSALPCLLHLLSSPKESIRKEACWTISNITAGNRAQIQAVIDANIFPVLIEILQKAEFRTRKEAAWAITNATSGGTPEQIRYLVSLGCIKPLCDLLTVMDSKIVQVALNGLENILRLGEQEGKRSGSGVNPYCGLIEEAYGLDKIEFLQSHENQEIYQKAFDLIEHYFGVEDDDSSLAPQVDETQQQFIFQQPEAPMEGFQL
# T3 sequence (P52294 58-538, stated change not applied): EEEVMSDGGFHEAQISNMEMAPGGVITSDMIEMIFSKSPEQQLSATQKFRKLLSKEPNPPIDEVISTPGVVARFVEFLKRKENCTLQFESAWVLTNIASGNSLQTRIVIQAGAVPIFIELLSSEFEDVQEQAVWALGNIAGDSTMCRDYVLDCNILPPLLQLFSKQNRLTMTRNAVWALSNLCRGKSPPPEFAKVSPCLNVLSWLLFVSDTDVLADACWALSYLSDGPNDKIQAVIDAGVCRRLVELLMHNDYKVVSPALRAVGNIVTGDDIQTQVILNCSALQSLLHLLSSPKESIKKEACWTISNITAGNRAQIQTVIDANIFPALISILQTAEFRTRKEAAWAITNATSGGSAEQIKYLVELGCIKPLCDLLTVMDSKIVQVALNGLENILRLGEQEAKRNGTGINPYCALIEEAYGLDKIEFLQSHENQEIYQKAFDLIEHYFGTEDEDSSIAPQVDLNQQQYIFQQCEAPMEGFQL
Binder,binding result [1],Kd [2] [nM],Kd [3] [nM],Kd [4] [nM],Kd [5]
"AAV6 VP1-BR (recombinant, residues 115-174) (domain or fragment, A TEV protease site stands upstream of the insert 'for GST-tag cleavage'; 15 residues of it are seen in the final model; also called AAV6 VP1 basic region; source: E. coli (codon optimized, pGEX4T-1), co-purified with IMPα2) GRAVFQAKKRVLEPFGLVEEGAKTAPGKKRPVEQSPQEPDSSSGIGKTGQQPAKKRLNFG",binds,–,–,–,–
AAV6 VP1-BR FITC-tagged peptide (residues 120-172) (also called FITC-tagged AAV6 VP1-BR; AAV6 VP1-BR FITC peptide; source: synthetic peptide (GenScript)) peptide: {FITC′-Ahx}-QAKKRVLEPFGLVEEGAKTAPGKKRPVEQSPQEPDSSSGIGKTGQQPAKKRLN,–,265,71,198,23 nM and 24 nM
